# Reference: patent publication US10920265B2, “Compounds and methods for detection of enzymes that remove methyl succinyl groups from epsilon-amino lysine moieties” (Enzo Life Sciences, Inc., priority 2011, dated 2021)
# B1: recombinant human SIRT5 (Homo sapiens) (protein)
# chain: SSSMADFRKFFAKAKHIVIISGAGVSAESGVPTFRGAGGYWRKWQAQDLATPLAFAHNPSRVWEFYHYRREVMGSKEPNAGHRAIAECETRLGKQGRRVVVITQNIDELHRKAGTKNLLEIHGSLFKTRCTSCGVVAENYKSPICPALSGKGAPEPGTQDASIPVEKLPRCEEAGCGGLLRPHVVWFGENLDPAILEEVDRELAHCDLCLVVGTSSVVYPAAMFAPQVAARGVPVAEFNTETTPATNRFRFHFQGPCGTTLPEALACHENETVS
# notes: purchased Enzo Life Sciences BML-SE555
# Substrate: CC(=O)N[C@@H](CCCCNC(=O)CCC(=O)O)C(=O)Nc1ccc2c(C)cc(=O)oc2c1
# Assay: SIRT5 desuccinylation/deacetylation of fluorogenic lysyl substrates, trypsin developer
# Assay type: biochemical, human
# Conditions: other: varied substrate: Lysyl, 1 mM NAD^+, 10 ng SIRT5, 20 min. at 37° C., pH 8.0
# Procedure: FIG. 3 is graphs showing that SIRT5 catalyzes NAD^+-dependent desuccinylation of Ac-Lys(ε-succinyl)-AMC far more efficiently than NAD^+-dependent deacetylation of Ac-Arg-His-Lys-Lys(ε-acetyl)-AMC. Fifty μl reactions in Assay Buffer (50 mM Tris/HCl, pH 8.0, 137 mM NaCl, 2.7 mM KCl, 1 mM MgCl2, 1 mg/ml BSA) included 50 μM of either Ac-Lys(ε-succinyl)-AMC or Ac-Arg-His-Lys-Lys(ε-acetyl)-AMC, and, where indicated, 500 μM NAD^+ and 5 μg recombinant human SIRT5 (Enzo Life Sciences Cat. # BML-SE555). […] AMC fluorescence was read in a Cytofluor II plate-reading fluorimeter (Perseptive Biosystems) at wavelengths 360 nm (excitation)/460 nm (emission), Gain 54. Data represent the mean of two (No Enzyme) or three (+SIRT5) determinations and error bars the standard deviations. Panels A and B present the same data, but with the +SIRT5/+NAD^+/Ac-Lys(ε-succinyl)-AMC bar omitted from B to show the detail on the remaining bars. Statistically significant differences (Student's t-test) are indicated by asterisks as follows: *: p<0.02 vs. corresponding No Enzyme control; **: p<0.001 vs. corresponding −NAD^+ control; ***: p<3×10^−6 vs. both No Enzyme and −NAD^+ controls.
# FIG. 4 is a graph showing that Ac-Lys(Succ.)-AMC enables SIRT5 assay at low enzyme concentrations. Fifty μl reactions in Assay Buffer (50 mM Tris/HCl, pH 8.0, 137 mM NaCl, 2.7 mM KCl, 1 mM MgCl2, 1 mg/ml BSA) included 2 or 10 μM Ac-Lys(ε-succinyl)-AMC, 500 μM NAD^+ and, where indicated, 5 ng recombinant human SIRT5 (Enzo Life Sciences Cat. # BML-SE555). […] AMC fluorescence was read in a Synergy 2 plate-reading fluorimeter (BioTek) at wavelengths 360 nm (excitation)/460 nm (emission), Gain 40. Data represent the mean of two (No Enzyme) or three (5 ng SIRT5) determinations and error bars the standard deviations. Statistically significant differences (Student's t-test) are indicated by asterisks as follows: *: p=0.002; **: p=0.009, each with respect to the corresponding “No SIRT5” samples.
# FIG. 5 is graphs showing dependence of SIRT5 initial rate kinetics on the concentrations of Ac-Lys(Succ.)-AMC and Ac-Lys(Ac.)-AMC. Fifty μl desuccinylation or deacetylation reactions were performed as described earlier (FIG. 4), with the indicated concentrations of Ac-Lys(Succ.)-AMC or Ac-Lys(Ac.)-AMC and 1 mM NAD^+, for 20 min. at 37° C. Reactions with Ac-Lys(Succ.)-AMC contained 10 ng SIRT5 and those with Ac-Lys(Ac.)-AMC contained 5 SIRT5. […] AMC fluorescence was read in a Synergy 2 plate-reading fluorimeter (BioTek) at wavelengths 360 nm (excitation)/460 nm (emission), Gain 40. […] Fluorescence differences were converted to specific activities (pmol/min/μg) by measuring the fluorescence increase due to the addition a standard solution of AMC (5 μl of a […]). […]
protein,measurement,value
B1,Km,108 µM
same,Vmax,490 pmol/min/µg
same,kcat,0.26 s⁻¹
same,kcat/Km,2450 M⁻¹ s⁻¹
